# Measurements as given in patent publication US8933202B2, “AXL antibodies” (U3 Pharma GmbH, priority 2007, dated 2015).
# T1: human AXL-ECD (Homo sapiens, UniProt P30530)
# T1 construct: purchased R&D Systems 154-AL
# T1 sequence (P30530 26-451 limits assumed): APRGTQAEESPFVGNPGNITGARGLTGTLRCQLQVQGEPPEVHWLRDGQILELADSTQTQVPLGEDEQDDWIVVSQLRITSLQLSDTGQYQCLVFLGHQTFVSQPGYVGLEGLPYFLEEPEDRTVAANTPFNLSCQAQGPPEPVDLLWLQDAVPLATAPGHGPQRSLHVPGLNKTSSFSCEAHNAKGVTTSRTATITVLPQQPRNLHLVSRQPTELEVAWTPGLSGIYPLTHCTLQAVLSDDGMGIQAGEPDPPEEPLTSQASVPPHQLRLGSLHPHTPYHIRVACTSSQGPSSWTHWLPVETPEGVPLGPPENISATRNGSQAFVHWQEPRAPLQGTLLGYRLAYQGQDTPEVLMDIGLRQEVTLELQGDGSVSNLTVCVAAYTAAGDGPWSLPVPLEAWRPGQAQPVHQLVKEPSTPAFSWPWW
# B1: 11B7: antagonistic rat anti-AXL monoclonal antibody, rat IgG1 (antibody, V domains shown)
# VL: DIQMTQAPSSLPASLGDRVTITCRASQDIGNYLRWFQQKPGKSPRLMISGATNLAAGVPSRFSGSRSGSDYSLTISSLESEDMADYYCLQSKESPWTFGGGTKLELK
# VH: EVQLQESGPGLVKPSQSLSLTCSVTGYSITSNYWGWIRKFPGDKMEWMGYITYSGSTSYNPSLKSRISITRDTSKNQFFLQLNSVTSEDTATYYCAITTFYYWGQGVMVTVSS
# Key:
# human AXL-ECD = target: T1, human AXL-ECD; test: Competition ELISA on AXL-ECD coated plates; type: binding; conditions: 10 μg/ml unbiotinylated, 0.5 μg/ml biotinylated antibody
# Experimental: Therefore binding of biotinylated anti-AXL antibodies to AXL-ECD domain-coated plates preincubated with anti-AXL antibodies was determined in a competition ELISA. […] On day 1, black 96 well Maxi-Sorp plates (Nunc) were coated with 100 μl/well of 1 μg/ml human AXL-ECD (R&D Systems #154-AL) in PBS over night at 4° C. […] After washing 6× with wash buffer (PBS, 0.1% TWEEN-20), 80 μl/well AP-conjugated Streptavidin (Chemicon #SA110) diluted 1:4,000 in blocking buffer were added, incubated for 20 min at room temperature washed again 6× with wash buffer and finally washed once with PBS. For detection, 100 μl/well Attophos substrate solution (Roche #11681982) were added. Using a Victor plate reader (Perkin Elmer), the fluorescence of each well was collected at an excitation wavelength of 430 nm an emission wavelength of 580 nm.
# HUVEC spheroids = test: Spheroid-based cellular angiogenesis assay; type: cell-based, human; conditions: 25 ng/ml VEGF-A, 24 h
# Experimental: AXL is a key regulator of multiple angiogenic behaviors including endothelial cell migration, proliferation, and tube formation in vitro (Holland et al., Cancer Res: 65, 9294-9303, 2005). […] The experiments were pursued in modification of the originally published protocol (Korff and Augustin: J Cell Sci 112: 3249-58, 1999). In brief, spheroids were prepared as described (Korff and Augustin: J Cell Biol 143: 1341-52, 1998) by pipetting 500 human umbilical vein endothelial cells (HUVEC) in a hanging drop on plastic dishes to allow over night spheroid aggregation. 50 HUVEC spheroids were then seeded in 0.9 ml of a collagen solution (2 mg/ml) and pipetted into individual wells of a 24 well plate to allow polymerization. […] Plates were incubated at 37° C. for 24 hours and fixed by adding 4% paraformaldehyde. Sprouting intensity of HUVEC spheroids was quantified by an image analysis system that determines the cumulative sprout length per spheroid using an inverted microscope and the digital imaging software Analysis 3.2 (Soft imaging system, Munster, Germany). The mean of the cumulative sprout length of 10 randomly selected spheroids was analyzed as an individual data point.
# [1] = tested on: PC-3-LN prostate carcinoma; test: Orthotopic prostate carcinoma xenograft model in nude mice; type: in vivo, NMRI nu/nu mice
# Experimental: The anti-tumor efficacy of therapeutic antibodies is often evaluated in human xenograft tumor studies. In these model systems, human tumors grow as xenografts in immunocompromised mice and therapeutic efficacy is measured by the degree of tumor growth inhibition. The aim of this study was to evaluate whether the antagonistic rat anti-AXL antibody 11B7 of the invention interferes with tumor growth of human prostate cancer cells in nude mice. In brief, on day 0, 7-8 weeks old male NMRI^−nu/nu mice (approximate weight: 30 g after acclimatization) were anesthesized with 1.5-2.0 volume percent isoflurane at an oxygen flow rate of 2 l/min, and 1×10^6 PC-3-LN cells in 25 μl PBS were orthotopically implanted into the prostate. PC-3-LN cells are derived from the PC-3 prostate carcinoma cell line which was infected with a retrovirus coding for a luciferase-neomycin fusion protein. The onset of tumor growth and tumor growth progression was therefore measurable via in vivo bioluminescence imaging. For this purpose, luciferin was injected intraperitoneally (i.p.) into the mice and light emission was measured 10 min post injection using a NightOWL LB 981 bioluminescence imaging system (Berthold Technologies, Germany). Prior to first treatment, mice were randomized and statistical tests performed to assure uniformity in starting tumor volumes (mean, median and standard deviation) across the treatment groups of 10 animals each. On day 8, all treatments started and were continued until day 34, followed by necropsy on day 35. […] In the same experiment as described under “Rat anti-AXL antibodies of the invention reduce human prostate carcinoma growth in nude mice”, relocalization of PC-3-LN tumor cells into other organs (metastasis) was analyzed post necropsy to evaluate anti-metastatic effects of the antagonistic rat anti-AXL antibody 11B7 of the invention. […] Subsequently, light emission was measured using a NightOWL LB 981 bioluminescence imaging system (Berthold Technologies, Germany).
molecule,measurement,setting,value
B1,competition with antagonistic anti-AXL antibodies for binding to AXL-ECD,human AXL-ECD,compete with each other for the same or structurally adjacent epitopes
same,HUVEC sprouting at the highest antibody concentration,HUVEC spheroids,reduced HUVEC sprouting to basal levels
same,overall growth of PC-3-LN prostate tumors (in vivo bioluminescence),"[1]; 25 mg/kg i.p. 3x a week, day 8 to 34, compared to isotypic control antibody 1D5",reduced the overall growth of PC-3-LN prostate tumors
same,occurrence of spleen metastases,"[1]; 25 mg/kg i.p. 3x a week, post necropsy, compared to 1D5",reduced the occurrence of spleen metastases
same,anti-metastatic effect compared with Sutent,"[1]; 11B7 25 mg/kg i.p. versus Sutent 40 mg/kg p.o. daily, spleen",stronger than that of Sutent
